Measured values reported in the Immune Epitope Database (IEDB).

Key:
Experiment in all cases: IEDB peptide-MHC binding, purified MHC/competitive/radioactivity; filed as Kd, often an IC50 or EC50 that approximates it; ≥ and ≤ were set here for values at or beyond the usual limits of such assays
HLA-A*03:01 = biological target: HLA-A*03:01
HLA-A*11:01 = biological target: HLA-A*11:01
HLA-A*31:01 = biological target: HLA-A*31:01
HLA-A*33:01 = biological target: HLA-A*33:01
HLA-A*68:01 = biological target: HLA-A*68:01
[1] = source organism: Vaccinia virus WR
[2] = source organism: Dengue virus 2 Jamaica/1409/1983
[3] = source organism: SARS coronavirus Tor2
[4] = source organism: Dengue virus 1 Brazil/97-11/1997
[5] = source organism: Dengue virus 4 Philippines/H241/1956
[6] = source organism: Dengue virus 3 Martinique/1243/1999
[7] = source organism: Dengue virus 1 Nauru/West Pac/1974
[8] = source organism: Mammarenavirus whitewaterense

Sequence	Kd (HLA-A*03:01; [1]) [nM]	Kd (HLA-A*11:01; [1]) [nM]	Kd (HLA-A*31:01; [1]) [nM]	Kd (HLA-A*33:01; [1]) [nM]	Kd (HLA-A*68:01; [1]) [nM]	also measured
FMRDWNSKY	8370	≥ 77900	≥ 77900	≥ 66300	≥ 77700	–
FSAGAGVLDK	452	225	575	350	15	–
GFCIPSRSK	973	1900	179	≥ 77700	≥ 38600	–
GIFLFLMSGK	–	–	–	–	–	Kd (HLA-A*03:01; [2]): 85.5 nM; Kd (HLA-A*11:01; [2]): 549 nM
GLALYYPSAR	–	–	–	–	–	Kd (HLA-A*03:01; [3]): 226 nM; Kd (HLA-A*11:01; [3]): 1120 nM; Kd (HLA-A*31:01; [3]): 993 nM; Kd (HLA-A*33:01; [3]): 2840 nM; Kd (HLA-A*68:01; [3]): 89.8 nM
GSSADLSLEK	–	–	–	–	–	Kd (HLA-A*11:01; [4]): 76 nM
GVSYEVFDDY	≥ 70100	504	≥ 70000	≥ 70000	≥ 70200	–
GYVLGIFLR	–	–	–	–	–	Kd (HLA-A*31:01; [5]): 15.7 nM; Kd (HLA-A*33:01; [5]): 39.8 nM
HLAIMAVFK	–	–	–	–	–	Kd (HLA-A*03:01; [5]): 5.77 nM; Kd (HLA-A*68:01; [5]): 70.6 nM
HSNLTETFR	112	40.6	0.596	4.95	0.414	–
IAVSMANIFR	–	–	–	–	–	Kd (HLA-A*31:01; [2]): 37.4 nM; Kd (HLA-A*33:01; [2]): 279 nM; Kd (HLA-A*68:01; [2]): 17.3 nM
IIKHIYEQY	1850	4140	2660	≥ 41600	2180	–
IIVAGFSGK	9.1	25.4	689	805	1440	–
IMLPESDLDK	609	393	489	≥ 70000	1670	–
IQKITVFNK	–	–	–	–	≥ 30300	–
ISIYSRPKIK	143	1670	5070	8830	1730	–
ITANPVVTKK	–	–	–	–	–	Kd (HLA-A*11:01; [6]): 84.6 nM; Kd (HLA-A*68:01; [6]): 23.9 nM
ITENKIWGR	–	–	–	–	–	Kd (HLA-A*33:01; [7]): 141 nM
ITTLLNETAK	10.9	12.4	10700	≥ 20800	11.4	–
IVSSVNTTSK	–	–	–	–	–	Kd (HLA-A*03:01; [5]): 37.2 nM; Kd (HLA-A*11:01; [5]): 234 nM
KAFKNNLSR	301	152	25.4	4140	171	–
KCFANNQDER	–	–	–	–	–	Kd (HLA-A*03:01; [8]): ≥ 70000 nM; Kd (HLA-A*11:01; [8]): ≥ 60300 nM; Kd (HLA-A*31:01; [8]): 6690 nM; Kd (HLA-A*33:01; [8]): ≥ 70000 nM; Kd (HLA-A*68:01; [8]): 6890 nM
KFLELKRGIY	1240	≥ 69800	22.6	≥ 70000	10900	–
KKSKAINVLR	–	–	–	–	–	Kd (HLA-A*31:01; [2]): 163 nM

Sequence	Kd (HLA-A*03:01; [1]) [nM]	Kd (HLA-A*11:01; [1]) [nM]	Kd (HLA-A*31:01; [1]) [nM]	Kd (HLA-A*33:01; [1]) [nM]	Kd (HLA-A*68:01; [1]) [nM]	also measured
KLCKNHAEK	13	19.9	543	≥ 38700	986	–
KLFKKTDFK	8.46	8.86	8.08	13900	6280	–
KLVTQWCCR	–	–	–	–	–	Kd (HLA-A*31:01; [5]): 11.9 nM
KMSTDNAVY	43.4	182	9730	≥ 77700	11600	–
KSLLLLNTR	689	114	0.627	1160	16900	–
KWLWGFLSR	–	–	–	–	–	Kd (HLA-A*31:01; [4]): ≥ 77900 nM
KWMLISSELK	–	–	–	–	–	Kd (HLA-A*03:01; [8]): 19.9 nM; Kd (HLA-A*11:01; [8]): 248 nM; Kd (HLA-A*31:01; [8]): 127 nM; Kd (HLA-A*33:01; [8]): 10500 nM; Kd (HLA-A*68:01; [8]): 891 nM
LFDFVNEKY	≥ 78000	≥ 48700	≥ 30000	≥ 77700	≥ 26100	–
LFKNVRLLK	233	885	185	1010	2090	–
LIPVSEVLLK	5230	609	≥ 70000	≥ 70000	1210	–
LIVTFRERY	4680	187	836	4130	408	–
LLKYAGLTIK	10.7	162	1610	14500	3150	–
LMTLDDLAIK	1670	478	≥ 40700	≥ 20900	2490	–
LQFTSLEIPR	–	–	–	–	–	Kd (HLA-A*03:01; [3]): 804 nM; Kd (HLA-A*11:01; [3]): 850 nM; Kd (HLA-A*31:01; [3]): 30.5 nM; Kd (HLA-A*33:01; [3]): 1210 nM; Kd (HLA-A*68:01; [3]): 402 nM
MLINRFTMK	–	–	–	–	–	Kd (HLA-A*03:01; [2]): 3.57 nM; Kd (HLA-A*11:01; [2]): 116 nM
MVLLQMENK	–	–	–	–	–	Kd (HLA-A*11:01; source organism: Dengue virus 2 Thailand/NGS-C/1944): 227 nM
NIVMLHTTER	–	–	–	–	–	Kd (HLA-A*33:01; [5]): 83.8 nM; Kd (HLA-A*68:01; [5]): 16.9 nM
QAIDGEFRLR	–	–	–	–	–	Kd (HLA-A*68:01; [5]): 15.5 nM
QLKLNWFKK	–	–	–	–	–	Kd (HLA-A*03:01; [2]): 134 nM
STVSQLAKR	–	–	–	–	–	Kd (HLA-A*31:01; [7]): ≥ 77900 nM; Kd (HLA-A*68:01; [7]): 9.66 nM
VMAFHLSTR	–	–	–	–	–	Kd (HLA-A*31:01; source organism: Dengue virus 4 Thailand/0348/1991): 9.39 nM
VTRLENLMWK	–	–	–	–	–	Kd (HLA-A*11:01; [2]): 128 nM
WYMWQVKTQR	–	–	–	–	–	Kd (HLA-A*33:01; [5]): 2.54 nM
